Here are results for one protein from article PMC3946754, “Two-Stage pH Control Strategy Based on the pH Preference of Acetoin Reductase Regulates Acetoin and 2,3-Butanediol Distribution in Bacillus subtilis” (PLoS ONE, 2014).

Usually Km stands for the concentration of substrate that gives half-maximal velocity. A word on the Vmax: it is the top rate of the reaction or transport when substrate is in excess. As usually defined, the kcat is the maximal rate divided by the concentration of active sites. As usually defined, the kcat/Km is the second-order rate constant that governs catalysis at low substrate concentration.

Substrate in data set [1]: NC(=O)c1ccc[n+]([C@@H]2O[C@H](COP(=O)(O)OP(=O)(O)OC[C@H]3O[C@@H](n4cnc5c(N)ncnc54)[C@H](O)[C@@H]3O)[C@@H](O)[C@H]2O)c1
Nature of the data set: NAD+ reduction assay, Lineweaver-Burk plot. The settings on record: oxidation, co-substrate 2,3-butanediol (standard assay 10 mM, pH 8.5), printed kcat/Km does not fit kcat and Km, varied: cofactor. In kind it is biochemical, Bacillus subtilis.

Substrate in data set [2]: CC(=O)C(C)O
Nature of the data set: NADH oxidation assay, Lineweaver-Burk plot. In kind it is biochemical, Bacillus subtilis. Conditions: reduction, co-substrate NADH (standard assay 0.2 mM NADH, PBS pH 6.5, 25°C preincubation), stereoisomer not told, 25.0 °C.

Substrate in data set [3]: NC(=O)C1=CN([C@@H]2O[C@H](COP(=O)(O)OP(=O)(O)OC[C@H]3O[C@@H](n4cnc5c(N)ncnc54)[C@H](O)[C@@H]3O)[C@@H](O)[C@H]2O)C=CC1
In words: NADH oxidation assay, Lineweaver-Burk plot. In kind it is biochemical, Bacillus subtilis. The settings on record: reduction, co-substrate acetoin (standard assay 10 mM, pH 6.5), printed kcat/Km does not fit kcat and Km, varied: cofactor.

Substrate in the data set “purified protein”: CC(O)C(C)O
Nature of the data set: purified protein. Conditions: oxidation, co-substrate NAD+ (standard assay 1.2 mM NAD+, pH 8.5, 25°C preincubation), stereoisomer not told, printed kcat/Km does not fit kcat and Km.

B1: AR/BDH (acetoin reductase/2,3-butanediol dehydrogenase) (Bacillus subtilis subsp. subtilis str. 168) (protein)
chain: MKAARWHNQKDIRIEHIEEPKTEPGKVKIKVKWCGICGSDLHEYLGGPIFIPVDKPHPLTNETAPVTMGHEFSGEVVEVGEGVENYKVGDRVVVEPIFATHGHQGAYNLDEQMGFLGLAGGGGGFSEYVSVDEELLFKLPDELSYEQGALVEPSAVALYAVRSSKLKAGDKAAVFGCGPIGLLVIEALKAAGATDIYAVELSPERQQKAEELGAIIVDPSKTDDVVAEIAERTGGGVDVAFEVTGVPVVLRQAIQSTTIAGETVIVSIWEKGAEIHPNDIVIKERTVKGIIGYRDIFPAVLSLMKEGYFSADKLVTKKIVLDDLIEEGFGALIKEKSQVKILVRPN
notes: full length, C-terminal His6 tag (from primer, not reported cut); pMA5-bdhA expressed in B. subtilis JNA 3-10; Ni-NTA and Superdex 200; subunit 38-39 kDa by SDS-PAGE
On to B1, for which the Michaelis-Menten constant (Km) worked out at 80 ± 2 µM in data set [1], 160 ± 5 µM in data set [2], 40 ± 1 µM in data set [3] and 260 ± 9 µM in the data set “purified protein”. In addition, the Vmax in data set [1] amounted to 14 µM/min; in data set [2] it was 5.54 µM/min; in data set [3] it was 14.2 µM/min; in the data set “purified protein” it was 2.34 µM/min. The turnover number (kcat) in data set [1] amounted to 0.0232 ± 0.000267 s⁻¹; in data set [2] it was 0.00567 ± 0.0002 s⁻¹; in data set [3], 0.0235 ± 0.00035 s⁻¹; in the data set “purified protein”, 0.00233 s⁻¹. For the same protein, the kcat/Km in data set [2] turned out to be 35.5 M⁻¹ s⁻¹.
